Test [1] addresses T1, purified human integrin αvβ3 from term placenta (human, UniProt P06756 31-1048; P05106 27-788).
T1 construct: mature; also called human placental αvβ3; vitronectin receptor avβ3
The experiment in a line: receptor inhibition assay: coated placental αvβ3, competitor ligand biotinylated vitronectin. Here is the method: Method: 1 μg ml⁻¹ biotin-ligand is incubated with 1 μg ml⁻¹ coated receptor in the presence of serially diluted peptides. After 3 h at 30° C. bound ligand was measures by anti-biotin—alkaline phosphatase detection.

Test [2] addresses T2, recombinant human integrin αvβ3 (human, UniProt P06756 31-992; P05106 27-718).
T2 construct: also called recombinant human αvβ3 integrin; avβ3
The experiment in a line: ligand inhibition ELISA: immobilized recombinant human αvβ3, competitor ligand biotinylated human serum vitronectin. In general terms: ELISA stands for enzyme-linked immunosorbent assay.

For test [3], the target named is T2, recombinant human integrin αvβ3. The test is described as follows: isolated integrin binding assay: adsorbed recombinant human αvβ3, competitor ligand biotinylated human plasma vitronectin. Here is the method:
After 3 hours at 37° C., bound ligand is detected using alkaline-phosphatase labelled anti-biotin MAbs (Sigma, St. Louis, Mo.).

In test [4] the target is T1, purified human integrin αvβ3 from term …. The test is described as follows: solid-phase inhibition assay: immobilized placental αvβ3, competitor ligand vitronectin.

Starred links: 1 amine or outer side, 2 acyl side, 3 side chain; linkers in the order of their positions; H or OH if unused. Non-standard residues stand in square brackets, D forms with d. Primed or numbered codes have the meaning given here. No end group written: not given here. Nhdg = N-hexadecylglycine, CCCCCCCCCCCCCCCCN(CC(=O)[*:2])[*:1]; Aib′ = 3-aminoisobutyric acid (as defined by the filing); Ac6c = NC1(C(=O)O)CCCCC1; NMeA = CN[C@@H](C)C(=O)O; Ac5c = NC1(C(=O)O)CCCC1

T1 sequence (P06756 31-1048, form in doubt, chain 1 of 2): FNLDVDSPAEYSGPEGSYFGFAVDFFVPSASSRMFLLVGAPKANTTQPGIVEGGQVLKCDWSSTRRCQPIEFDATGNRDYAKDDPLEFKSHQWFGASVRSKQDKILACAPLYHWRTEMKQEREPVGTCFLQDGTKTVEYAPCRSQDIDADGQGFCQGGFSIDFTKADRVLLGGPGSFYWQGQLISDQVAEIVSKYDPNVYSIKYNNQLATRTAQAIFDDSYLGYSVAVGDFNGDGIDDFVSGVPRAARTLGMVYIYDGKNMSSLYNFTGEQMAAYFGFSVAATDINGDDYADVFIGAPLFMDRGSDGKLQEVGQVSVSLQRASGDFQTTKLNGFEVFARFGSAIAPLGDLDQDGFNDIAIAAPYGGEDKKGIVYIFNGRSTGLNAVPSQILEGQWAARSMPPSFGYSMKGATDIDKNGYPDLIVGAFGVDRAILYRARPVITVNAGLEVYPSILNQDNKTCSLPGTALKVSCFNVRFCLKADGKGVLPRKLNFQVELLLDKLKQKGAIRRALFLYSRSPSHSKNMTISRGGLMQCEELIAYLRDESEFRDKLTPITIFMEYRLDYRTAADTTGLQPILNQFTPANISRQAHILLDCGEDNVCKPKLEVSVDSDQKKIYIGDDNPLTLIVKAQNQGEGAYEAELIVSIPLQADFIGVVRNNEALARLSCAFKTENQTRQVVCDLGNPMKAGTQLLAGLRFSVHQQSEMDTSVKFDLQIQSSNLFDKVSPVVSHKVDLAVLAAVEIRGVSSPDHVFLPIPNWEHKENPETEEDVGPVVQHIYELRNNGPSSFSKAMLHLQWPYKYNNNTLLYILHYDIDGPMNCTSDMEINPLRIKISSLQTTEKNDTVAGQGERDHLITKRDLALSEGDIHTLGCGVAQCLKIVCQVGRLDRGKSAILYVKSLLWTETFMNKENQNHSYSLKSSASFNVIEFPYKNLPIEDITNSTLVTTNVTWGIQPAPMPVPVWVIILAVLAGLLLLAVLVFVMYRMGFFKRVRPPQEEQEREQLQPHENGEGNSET
T1 sequence (P05106 27-788, form in doubt, chain 2 of 2): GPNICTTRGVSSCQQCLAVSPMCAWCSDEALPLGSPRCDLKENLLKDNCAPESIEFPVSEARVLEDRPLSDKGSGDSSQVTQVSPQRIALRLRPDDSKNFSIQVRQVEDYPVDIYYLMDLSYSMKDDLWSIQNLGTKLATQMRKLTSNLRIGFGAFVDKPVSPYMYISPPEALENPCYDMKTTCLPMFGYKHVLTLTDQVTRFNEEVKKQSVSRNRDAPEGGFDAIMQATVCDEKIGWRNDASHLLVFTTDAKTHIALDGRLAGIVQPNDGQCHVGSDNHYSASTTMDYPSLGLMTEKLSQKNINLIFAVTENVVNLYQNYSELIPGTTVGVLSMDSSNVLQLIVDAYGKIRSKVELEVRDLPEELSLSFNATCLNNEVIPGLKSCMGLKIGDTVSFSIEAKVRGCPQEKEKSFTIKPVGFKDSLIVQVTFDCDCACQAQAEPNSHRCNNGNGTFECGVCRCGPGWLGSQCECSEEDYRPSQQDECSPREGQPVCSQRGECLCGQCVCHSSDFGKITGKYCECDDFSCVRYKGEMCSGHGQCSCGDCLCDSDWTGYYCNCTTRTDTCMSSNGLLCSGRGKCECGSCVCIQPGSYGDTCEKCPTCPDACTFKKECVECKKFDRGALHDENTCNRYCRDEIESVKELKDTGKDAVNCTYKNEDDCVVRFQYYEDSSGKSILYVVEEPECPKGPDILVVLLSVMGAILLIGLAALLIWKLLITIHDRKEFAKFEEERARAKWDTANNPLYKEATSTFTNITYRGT
T2 sequence (P06756 31-992, chain 1 of 2): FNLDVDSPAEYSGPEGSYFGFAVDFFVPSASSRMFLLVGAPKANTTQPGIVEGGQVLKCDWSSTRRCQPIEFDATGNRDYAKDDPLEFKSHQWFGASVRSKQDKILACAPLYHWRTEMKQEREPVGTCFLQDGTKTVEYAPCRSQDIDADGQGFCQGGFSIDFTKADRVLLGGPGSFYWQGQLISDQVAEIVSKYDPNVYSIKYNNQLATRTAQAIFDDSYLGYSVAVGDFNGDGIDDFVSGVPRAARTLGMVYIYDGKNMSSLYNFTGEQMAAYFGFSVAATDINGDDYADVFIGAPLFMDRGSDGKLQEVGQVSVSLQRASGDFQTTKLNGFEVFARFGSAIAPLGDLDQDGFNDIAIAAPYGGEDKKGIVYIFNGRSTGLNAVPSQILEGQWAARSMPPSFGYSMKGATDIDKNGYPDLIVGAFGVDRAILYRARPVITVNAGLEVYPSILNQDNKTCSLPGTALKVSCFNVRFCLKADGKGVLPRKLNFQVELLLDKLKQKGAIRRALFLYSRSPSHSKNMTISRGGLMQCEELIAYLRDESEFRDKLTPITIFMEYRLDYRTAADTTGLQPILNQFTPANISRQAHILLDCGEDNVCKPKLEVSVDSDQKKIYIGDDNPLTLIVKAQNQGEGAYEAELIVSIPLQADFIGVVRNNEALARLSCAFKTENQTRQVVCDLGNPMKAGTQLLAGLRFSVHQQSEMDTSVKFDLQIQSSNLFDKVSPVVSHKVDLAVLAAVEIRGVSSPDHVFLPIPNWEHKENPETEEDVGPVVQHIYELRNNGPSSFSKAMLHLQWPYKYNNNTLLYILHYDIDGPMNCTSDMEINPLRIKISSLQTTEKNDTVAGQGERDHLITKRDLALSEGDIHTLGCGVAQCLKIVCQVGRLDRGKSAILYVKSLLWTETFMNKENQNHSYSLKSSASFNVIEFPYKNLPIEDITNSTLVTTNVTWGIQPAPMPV
T2 sequence (P05106 27-718, chain 2 of 2): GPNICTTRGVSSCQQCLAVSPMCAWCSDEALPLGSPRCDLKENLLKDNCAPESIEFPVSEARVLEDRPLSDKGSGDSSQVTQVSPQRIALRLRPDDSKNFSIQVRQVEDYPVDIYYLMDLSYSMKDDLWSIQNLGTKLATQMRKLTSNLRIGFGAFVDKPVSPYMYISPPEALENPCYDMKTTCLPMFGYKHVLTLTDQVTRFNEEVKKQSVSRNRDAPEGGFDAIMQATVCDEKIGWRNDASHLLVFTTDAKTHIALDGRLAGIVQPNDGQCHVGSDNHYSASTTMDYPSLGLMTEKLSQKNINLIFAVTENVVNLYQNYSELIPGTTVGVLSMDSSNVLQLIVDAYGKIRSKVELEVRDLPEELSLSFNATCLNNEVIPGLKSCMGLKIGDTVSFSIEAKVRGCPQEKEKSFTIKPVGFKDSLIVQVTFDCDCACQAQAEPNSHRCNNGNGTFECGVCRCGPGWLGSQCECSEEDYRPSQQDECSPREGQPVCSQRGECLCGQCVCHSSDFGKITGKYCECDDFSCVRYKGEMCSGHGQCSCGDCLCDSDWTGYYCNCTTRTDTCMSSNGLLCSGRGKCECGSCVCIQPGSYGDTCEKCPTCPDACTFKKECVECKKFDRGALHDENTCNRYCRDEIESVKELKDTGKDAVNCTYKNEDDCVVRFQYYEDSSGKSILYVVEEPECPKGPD

B1: Cyclo-(Arg-Gly-Asp-DPhe-Acpa) (peptide)
peptide: cyclo(RGD[dF][Ac5c])
notes: X = non-natural residue Acpa
Broadly, the IC50 is the concentration at which inhibition is half-maximal. In test [1], B1 returned an IC50 of 0.009 µM.

B2: Cyclo-(Arg-Gly-Asp-DPhe-(NMe)Ala) (peptide)
peptide: cyclo(RGD[dF][NMeA])
SMILES: C[C@H]1C(=O)N[C@@H](CCCNC(=N)N)C(=O)NCC(=O)N[C@@H](CC(=O)O)C(=O)N[C@H](Cc2ccccc2)C(=O)N1C
In the case of B2, the IC50 in test [2] was determined as 0.024 µM.

B3: Cyclo-(Arg-Gly-Asp-DPhe-hPro) (peptide)
peptide: cyclo(RGD[dF]X)
modifications: not fully specified (residue 5); printed as Cyclo-(Arg-Gly-Asp-DPhe-hPro)
notes: X = non-natural residue hPro
Take B3: the IC50 in test [1] turned out to be 0.17 µM.

B4: Cyclo-(Arg-Gly-Asp-DPhe-Acha) (peptide)
peptide: cyclo(RGD[dF][Ac6c])
SMILES: N=C(N)NCCC[C@@H]1NC(=O)C2(CCCCC2)NC(=O)[C@@H](Cc2ccccc2)NC(=O)[C@H](CC(=O)O)NC(=O)CNC1=O
notes: X = non-natural residue Acha; also called CPPC 1; Cyclopeptide
As for B4, the IC50 was found to be 0.0021 µM in test [3] and 0.002 µM in test [1].

B5: Cyclo(Arg-Gly-Asp-Phe-Gly) (peptide)
peptide: RGDFG
modifications: head-to-tail cyclic (homodetic)
The molecule B5 displayed an IC50 in test [1] of 0.4 µM.

B6: Cyclo-(Arg-Ala-Asp-DPhe-Val) (peptide)
peptide: cyclo(RAD[dF]V)
SMILES: CC(C)[C@@H]1NC(=O)[C@@H](Cc2ccccc2)NC(=O)[C@H](CC(=O)O)NC(=O)[C@H](C)NC(=O)[C@H](CCCNC(=N)N)NC1=O
notes: also called cyclo(RADfV)
B6 yielded an IC50 in test [4] of 4 µM.

B7: Cyclo-(Arg-Gly-Asp-Phe-Nhdg) (peptide)
peptide: cyclo(RGDF[Nhdg])
SMILES: CCCCCCCCCCCCCCCCN1CC(=O)N[C@@H](CCCNC(=N)N)C(=O)NCC(=O)N[C@@H](CC(=O)O)C(=O)N[C@@H](Cc2ccccc2)C1=O
notes: Phe at 4 is printed without D; residue 5 is glycine carrying an N-hexadecyl group
B7 had an IC50 in test [1] of 0.008 µM.

B8: Cyclo-(Arg-Gly-Asp-DPhe-Aib) (peptide)
peptide: cyclo(RGD[dF][Aib′])
notes: X = non-natural residue Aib
As for B8, in test [1], the IC50 stood at 0.02 µM.

B9: Gly-Arg-Gly-Asp-Ser-Pro-Lys-OH (peptide)
peptide: GRGDSPK-OH
notes: Linear peptide with free C-terminus; also called GRGDSPK peptide
As for B9, in test [3], the IC50 was 0.12 µM.

Source of the values: US20150265516A1 (Merck KGaA, published 2015).
